Legend:
MxPPO [1] = experiment: Herbicide tolerance test of MxPPO wild type and variants in PPO-deficient E. coli BT3(ΔPPO), growth on herbicide-containing LB agar; assay type: cell-based, Myxococcus xanthus; conditions: relative to MxPPO WT, light; for Herbicide tolerance, flumioxazin: up to 100 μM (FIG. 13); for Herbicide tolerance, saflufenacil: up to 200 μM (FIG. 13)
Procedure: Then, the extent of tolerance was evaluated.

MxPPO [2] = experiment: PPO enzyme activity of purified MBP-fused MxPPO wild type and variants; assay type: biochemical, Myxococcus xanthus; conditions: PPO enzyme activity of purified MxPPO protein, relative to wild type
Procedure: Thus, PPO proteins of wild type and variants were expressed as fused to MBP and were used for experiments.
The following process for purification of PPO protein was performed in a 4° C. cold room. […] The column was washed with 3 column volumes of buffer and the presence of protein in the washing solution was examined. When the protein was no longer detected, the washing procedure was terminated. Then, the MBP-PPO protein was eluted with approximately 2 column volumes of buffer containing 20 mM maltose. The protein concentration of each eluent was determined and the elution was stopped when the protein was no longer detected. Ten microliter of each fraction was investigated for protein quantification and SDS-PAGE analysis. The highly pure fractions of PPO protein variants were used for the enzyme assay.
Since protoporphyrinogen IX, a substrate of PPO protein, was not commercially available, it was chemically synthesized in the laboratory. Overall process was performed in dark under nitrogen stream. […] of protoporphyrin IX was dissolved in 20 ml of 20% (v/v) EtOH, and stirred under dark condition for 30 minutes. The obtained protoporphyrin IX solution was put into a 15 ml screw tube in an amount of 800 μl, and flushed with nitrogen gas for 5 minutes. To this, 1.5 g of sodium amalgam was added and vigorously shaken for 2 minutes. The lid was opened to exhaust hydrogen gas in the tube. Thereafter, the lid was closed and incubated for 3 minutes. The protoporphyrinogen IX solution was filtered using syringe and cellulose membrane filter. To 600 μl of the obtained protoporphyrinogen IX solution, approximately 300 μl of 2M MOPS [3-(N-morpholino) propanesulfonic acid] was added to adjust pH to 8.0. To determine the enzyme activity of PPO protein, a reaction mixture was prepared with the following composition (based on 10 ml): 50 mM Tris-Cl (pH 8.0); 50 mM NaCl; 0.04% (v/v) Tween 20; 40 mM glucose (0.072 g); 5 units glucose oxidase (16.6 mg); and 10 units catalase (1 μl).
Hundred and eighty microliters of a reaction mixture […] were placed in 96 well plates and 20 μl of purified PPO proteins were added. After 50 μl of the mineral oil was layered, the reaction was initiated by adding the substrate, protoporphyrinogen IX solution, to a final concentration of 50 μM. The reaction proceeded at room temperature for 30 min and the fluorescence of protoporphyrin IX was measured using Microplate reader (Sense, Hidex) (excitation: 405 nm; emission: 633 nm). To calculate the PPO enzyme activity, the protoporphyrinogen IX solution was kept open in the air overnight to oxidize the solution. To this, 2.7 N HCl was added, and the absorbance at 408 nm was measured. A standard curve was generated using standard protoporphyrin IX, and PPO activity was measured by calibration of protoporphyrin IX using the standard curve of protoporphyrin IX.
Activities of variants were presented relatively compared to that of wild type.

Molecule | Herbicide tolerance, flumioxazin (MxPPO [1]) | Herbicide tolerance, saflufenacil (MxPPO [1]) | Activity (%) (MxPPO [2])
A170L: MxPPO (SEQ ID NO: 3) variant (protein, Synthetic (Protoporphyrinogen IX oxidase (MxPPO) of Myxococcus xanthus)) MHHMPRTTGMNVAVVGGGISGLAVAHHLRSRGTDAVLLESSARLGGAVGTHALAGYLVEQGPNSFLDREPATRALAAALNLEGRIRAADPAAKRRYVYTRGRLRSVPASPPAFLASDILPLGARLRVAGELFSRRAPEGVDESLAAFGRRHLGHRATQVLLDAVQTGIYLGDVEQLSVAATFPMLVKMEREHRSLILGAIRAQKAQRQAALPAGTAPKLSGALSTFDGGLQVLIDALAASLGDAAHVGARVEGLAREDGGWRLIIEEHGRRAELSVAQVVLAAPAHATAKLLRPLDDALAALVAGIAYAPIAVVHLGFDAGTLPAPDGFGFLVPAEEQRRMLGAIHASTTFPFRAEGGRVLYSCMVGGARQPGLVEQDEDALAALAREELKALAGVTARPSFTRVFRWPLGIPQYNLGHLERVAAIDAALQRLPGLHLIGNAYKGVGLNDCIRNAAQLADALVAGNTSHAP | ++ (10-99 fold higher tolerance) | ++ (10-99 fold higher tolerance) | 40%
R95A: MxPPO (SEQ ID NO: 3) variant (protein, Synthetic (Protoporphyrinogen IX oxidase (MxPPO) of Myxococcus xanthus)) MHHMPRTTGMNVAVVGGGISGLAVAHHLRSRGTDAVLLESSARLGGAVGTHALAGYLVEQGPNSFLDREPATRALAAALNLEGRIRAADPAAKRAYVYTRGRLRSVPASPPAFLASDILPLGARLRVAGELFSRRAPEGVDESLAAFGRRHLGHRATQVLLDAVQTGIYAGDVEQLSVAATFPMLVKMEREHRSLILGAIRAQKAQRQAALPAGTAPKLSGALSTFDGGLQVLIDALAASLGDAAHVGARVEGLAREDGGWRLIIEEHGRRAELSVAQVVLAAPAHATAKLLRPLDDALAALVAGIAYAPIAVVHLGFDAGTLPAPDGFGFLVPAEEQRRMLGAIHASTTFPFRAEGGRVLYSCMVGGARQPGLVEQDEDALAALAREELKALAGVTARPSFTRVFRWPLGIPQYNLGHLERVAAIDAALQRLPGLHLIGNAYKGVGLNDCIRNAAQLADALVAGNTSHAP |  |  | 43%
I311M: MxPPO (SEQ ID NO: 3) variant (protein, Synthetic (Protoporphyrinogen IX oxidase (MxPPO) of Myxococcus xanthus)) MHHMPRTTGMNVAVVGGGISGLAVAHHLRSRGTDAVLLESSARLGGAVGTHALAGYLVEQGPNSFLDREPATRALAAALNLEGRIRAADPAAKRRYVYTRGRLRSVPASPPAFLASDILPLGARLRVAGELFSRRAPEGVDESLAAFGRRHLGHRATQVLLDAVQTGIYAGDVEQLSVAATFPMLVKMEREHRSLILGAIRAQKAQRQAALPAGTAPKLSGALSTFDGGLQVLIDALAASLGDAAHVGARVEGLAREDGGWRLIIEEHGRRAELSVAQVVLAAPAHATAKLLRPLDDALAALVAGIAYAPMAVVHLGFDAGTLPAPDGFGFLVPAEEQRRMLGAIHASTTFPFRAEGGRVLYSCMVGGARQPGLVEQDEDALAALAREELKALAGVTARPSFTRVFRWPLGIPQYNLGHLERVAAIDAALQRLPGLHLIGNAYKGVGLNDCIRNAAQLADALVAGNTSHAP | ++ (10-99 fold higher tolerance) | ++ (10-99 fold higher tolerance) | 87%
R95A + M365I: MxPPO (SEQ ID NO: 3) variant (protein, Synthetic (Protoporphyrinogen IX oxidase (MxPPO) of Myxococcus xanthus)) MHHMPRTTGMNVAVVGGGISGLAVAHHLRSRGTDAVLLESSARLGGAVGTHALAGYLVEQGPNSFLDREPATRALAAALNLEGRIRAADPAAKRAYVYTRGRLRSVPASPPAFLASDILPLGARLRVAGELFSRRAPEGVDESLAAFGRRHLGHRATQVLLDAVQTGIYAGDVEQLSVAATFPMLVKMEREHRSLILGAIRAQKAQRQAALPAGTAPKLSGALSTFDGGLQVLIDALAASLGDAAHVGARVEGLAREDGGWRLIIEEHGRRAELSVAQVVLAAPAHATAKLLRPLDDALAALVAGIAYAPIAVVHLGFDAGTLPAPDGFGFLVPAEEQRRMLGAIHASTTFPFRAEGGRVLYSCIVGGARQPGLVEQDEDALAALAREELKALAGVTARPSFTRVFRWPLGIPQYNLGHLERVAAIDAALQRLPGLHLIGNAYKGVGLNDCIRNAAQLADALVAGNTSHAP |  |  | 42%
R95A + M365V: MxPPO (SEQ ID NO: 3) variant (protein, Synthetic (Protoporphyrinogen IX oxidase (MxPPO) of Myxococcus xanthus)) MHHMPRTTGMNVAVVGGGISGLAVAHHLRSRGTDAVLLESSARLGGAVGTHALAGYLVEQGPNSFLDREPATRALAAALNLEGRIRAADPAAKRAYVYTRGRLRSVPASPPAFLASDILPLGARLRVAGELFSRRAPEGVDESLAAFGRRHLGHRATQVLLDAVQTGIYAGDVEQLSVAATFPMLVKMEREHRSLILGAIRAQKAQRQAALPAGTAPKLSGALSTFDGGLQVLIDALAASLGDAAHVGARVEGLAREDGGWRLIIEEHGRRAELSVAQVVLAAPAHATAKLLRPLDDALAALVAGIAYAPIAVVHLGFDAGTLPAPDGFGFLVPAEEQRRMLGAIHASTTFPFRAEGGRVLYSCVVGGARQPGLVEQDEDALAALAREELKALAGVTARPSFTRVFRWPLGIPQYNLGHLERVAAIDAALQRLPGLHLIGNAYKGVGLNDCIRNAAQLADALVAGNTSHAP |  |  | 40%
M365T: MxPPO (SEQ ID NO: 3) variant (protein, Synthetic (Protoporphyrinogen IX oxidase (MxPPO) of Myxococcus xanthus)) MHHMPRTTGMNVAVVGGGISGLAVAHHLRSRGTDAVLLESSARLGGAVGTHALAGYLVEQGPNSFLDREPATRALAAALNLEGRIRAADPAAKRRYVYTRGRLRSVPASPPAFLASDILPLGARLRVAGELFSRRAPEGVDESLAAFGRRHLGHRATQVLLDAVQTGIYAGDVEQLSVAATFPMLVKMEREHRSLILGAIRAQKAQRQAALPAGTAPKLSGALSTFDGGLQVLIDALAASLGDAAHVGARVEGLAREDGGWRLIIEEHGRRAELSVAQVVLAAPAHATAKLLRPLDDALAALVAGIAYAPIAVVHLGFDAGTLPAPDGFGFLVPAEEQRRMLGAIHASTTFPFRAEGGRVLYSCTVGGARQPGLVEQDEDALAALAREELKALAGVTARPSFTRVFRWPLGIPQYNLGHLERVAAIDAALQRLPGLHLIGNAYKGVGLNDCIRNAAQLADALVAGNTSHAP |  |  | 52%

From patent US20220042033A1, “COMPOSITION AND METHOD FOR CONFERRING AND/OR ENHANCING TOLERANCE AGAINST HERBICIDES BY USING VARIANTS OF PPO” (FarmHannong Co., Ltd., priority 2017, published 2022)
